The values below come from article PMC12578939.

The target in the test is microtubules polymerised from bovine brain tubulin (bovine) (UniProt Q6B856). The test is described as follows: TIRF microscopy of binding to immobilised microtubules.

In the case of “augmin octamer lacking the N-terminal MTBR of Haus8 (residues 1-154) (from UniProt Q0IHJ3;Q6DCY9) (complex)”, the reduction in MT binding against wildtype augmin is 50%.
